From article doi:10.1101/2020.11.04.367136 (bioRxiv, 2020)
Numbering of substitutions follows the chain as printed. Names may count otherwise.

T1: GFP–Rad55–Rad57 complex (His6–GFP–Rad55 and FLAG–Rad57) (S. cerevisiae, UniProt P38953 1-406; P25301 1-460)
T1 sequence (looked up) 1: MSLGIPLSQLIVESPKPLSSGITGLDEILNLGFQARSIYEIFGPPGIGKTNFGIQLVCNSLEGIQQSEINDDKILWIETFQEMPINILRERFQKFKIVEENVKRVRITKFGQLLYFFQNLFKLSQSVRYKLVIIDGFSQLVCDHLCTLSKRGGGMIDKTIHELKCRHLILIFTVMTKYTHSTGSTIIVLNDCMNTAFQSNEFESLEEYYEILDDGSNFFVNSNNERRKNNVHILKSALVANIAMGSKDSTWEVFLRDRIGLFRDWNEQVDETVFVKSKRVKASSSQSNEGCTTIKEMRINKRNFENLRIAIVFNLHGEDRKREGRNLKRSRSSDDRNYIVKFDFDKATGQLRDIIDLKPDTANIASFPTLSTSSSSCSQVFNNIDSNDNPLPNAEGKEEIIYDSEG
T1 sequence (looked up) 2: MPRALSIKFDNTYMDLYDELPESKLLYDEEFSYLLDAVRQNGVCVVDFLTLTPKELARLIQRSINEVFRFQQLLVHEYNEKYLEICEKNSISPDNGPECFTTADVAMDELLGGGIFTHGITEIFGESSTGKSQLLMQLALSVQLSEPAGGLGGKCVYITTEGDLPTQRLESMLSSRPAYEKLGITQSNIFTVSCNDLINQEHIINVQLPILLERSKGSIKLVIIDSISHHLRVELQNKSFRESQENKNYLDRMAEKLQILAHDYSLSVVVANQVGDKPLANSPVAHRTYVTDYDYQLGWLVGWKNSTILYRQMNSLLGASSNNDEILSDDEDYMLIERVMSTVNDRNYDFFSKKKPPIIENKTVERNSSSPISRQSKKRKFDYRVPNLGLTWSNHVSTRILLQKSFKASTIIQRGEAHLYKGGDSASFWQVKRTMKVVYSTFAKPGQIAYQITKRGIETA

B1: GST–Hed1–6xHis–GFP (natural protein, S. cerevisiae, UniProt Q03937 1-162, looked up)
chain: MQQRSNRRSCSYIPLGVHNNAEKSLCTEVAPARKNKRSITTSPIVNINVVERRLFNLELEKQQLRAKNLSENTGGGSPNGGAYLDAKKGVREQDQYQGGPSKELDRLQPPPSMKKSPPRKKKSLKDLIYETNKTFYQVDSNKVKYKVGLSKKQLLPSKTVDN
B2: Rad51 (natural protein, S. cerevisiae, UniProt P25454 1-400, looked up)
chain: MSQVQEQHISESQLQYGNGSLMSTVPADLSQSVVDGNGNGSSEDIEATNGSGDGGGLQEQAEAQGEMEDEAYDEAALGSFVPIEKLQVNGITMADVKKLRESGLHTAEAVAYAPRKDLLEIKGISEAKADKLLNEAARLVPMGFVTAADFHMRRSELICLTTGSKNLDTLLGGGVETGSITELFGEFRTGKSQLCHTLAVTCQIPLDIGGGEGKCLYIDTEGTFRPVRLVSIAQRFGLDPDDALNNVAYARAYNADHQLRLLDAAAQMMSESRFSLIVVDSVMALYRTDFSGRGELSARQMHLAKFMRALQRLADQFGVAVVVTNQVVAQVDGGMAFNPDPKKPIGGNIMAHSSTTRLGFKKGKGCQRLCKVVDSPCLPEAECVFAIYEDGVGDPREEDE
B3: Rad51–K191R (natural protein, S. cerevisiae, UniProt P25454 1-400, looked up)
chain: B2 chain with K191R

Experiments:
Rad51 = target: B2; experiment: single-molecule ssDNA curtain assay
[1] = target: T1, GFP–Rad55–Rad57 complex (His6–GFP–Rad55 …); experiment: single-molecule ssDNA curtain assay

Row | Binder | binding result (Rad51) | koff [1] [s⁻¹]
1 | B1 | binds | –
2 | B2 | – | 0.00758
3 | B3 | – | 0.0058
